Laboratory results as given in PMC6133441, “Characterization of neutralizing antibodies reacting with the 213-224 amino-acid segment of human galectin-9” (PLoS ONE, 2018).

What was measured:
[1] = molecular target: human recombinant galectin-9, short isoform (gal-9S) (Homo sapiens, UniProt O00182-3, strain, biotin in the direct ELISA (sites not given); unlabelled in the cell assays); assay: cell-based or functional assay
[2] = molecular target: T1, human galectin-1 (Homo sapiens, UniProt P09382, biotin (sites not given)); assay: ELISA; direct ELISA: antibodies coated in a 96-well plate; biotinylated galectins at 1 nM, detected by streptavidin-HRP; for gal-9S also 1h at 37°C with or without lactose 20 mM (S1 Fig); details: both partners purified
T1 construct: human galectin-1, recombinant; also called h-Gal 1; source: recombinant

[3] = molecular target: T2, human galectin-2 (Homo sapiens, UniProt P05162, biotin (sites not given)); assay: as above; details: both partners purified
T2 construct: human galectin-2, recombinant; also called h-Gal 2; source: recombinant

[4] = molecular target: T3, human galectin-4 (Homo sapiens, UniProt P56470, biotin (sites not given)); assay: as above; details: both partners purified
T3 construct: human galectin-4, recombinant; also called h-Gal 4; source: recombinant

[5] = molecular target: T4, human galectin-7 (Homo sapiens, UniProt P47929, biotin (sites not given)); assay: as above; details: both partners purified
T4 construct: human galectin-7, recombinant; also called h-Gal 7; source: recombinant

[6] = molecular target: T5, human galectin-8 (Homo sapiens, UniProt O00214, biotin (sites not given)); assay: as above; details: both partners purified
T5 construct: human galectin-8, recombinant; also called h-Gal 8; source: recombinant

[7] = molecular target: T6, human galectin-10 (Homo sapiens, UniProt Q05315, biotin (sites not given)); assay: as above; details: both partners purified
T6 construct: human galectin-10, recombinant; also called h-Gal 10; source: recombinant

[8] = molecular target: T7, peptide 12 (Homo sapiens, UniProt O00182); assay: ELISA; competition: Gal-Nab1 (0.06 μg/mL) or Gal-Nab2 (0.3 μg/mL) pre-incubated with each 15-mer peptide (0.0001 to 10 μg/mL), then added to plates coated with gal-9; HRP-conjugated anti-mouse antibodies; percent inhibition; details: both partners purified
T7 construct: 15-mer of human gal-9, twelfth of 15 overlapping peptides spanning aa 202-230 (gal-9L coordinates) with a shift of one aa; limits worked out from peptide 1 = 202-216; they are counted from the set
T7 chain: IPPMMYPHPAYPMPF

[9] = molecular target: T8, peptide 13 (Homo sapiens, UniProt O00182); assay: as above; details: both partners purified
T8 construct: 15-mer of human gal-9, thirteenth of 15 overlapping peptides spanning aa 202-230 (gal-9L coordinates) with a shift of one aa; limits worked out from peptide 1 = 202-216; they are counted from the set
T8 chain: PPMMYPHPAYPMPFI

[10] = molecular target: T9, CTB oligopeptide containing the amino-acids 208 to 232 of gal-9L (Homo sapiens, biotin at the C-terminus: K(biotin)-OH); assay: SPR; Biacore T200; biotinylated CTB or scramble oligopeptide on a streptavidin (SA) chip; Gal-Nab1 and Gal-Nab2 as analytes, 0.05 to 3.2 nM, 40 μL/min, 700 s, PBS with albumin 0.1 mg/mL and tween 0.05%; dissociation 800 s; apparent affinities (avidity); design: t1/2: unit not given here; details: both partners purified
T9 construct: stuffer aa not related to gal-9, designed to increase solubility and accessibility; stuffer aa not related to gal-9; the last lysine carries the biotin; 32-mer; also called CTB-gal-9 peptide; CTB peptide
T9 sequence (chain, as listed by the source): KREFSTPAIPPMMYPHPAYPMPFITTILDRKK

Sequence of human recombinant galectin-9, short isoform (gal-9S) (O00182 whole entry, looked up, stated change not applied, canonical isoform): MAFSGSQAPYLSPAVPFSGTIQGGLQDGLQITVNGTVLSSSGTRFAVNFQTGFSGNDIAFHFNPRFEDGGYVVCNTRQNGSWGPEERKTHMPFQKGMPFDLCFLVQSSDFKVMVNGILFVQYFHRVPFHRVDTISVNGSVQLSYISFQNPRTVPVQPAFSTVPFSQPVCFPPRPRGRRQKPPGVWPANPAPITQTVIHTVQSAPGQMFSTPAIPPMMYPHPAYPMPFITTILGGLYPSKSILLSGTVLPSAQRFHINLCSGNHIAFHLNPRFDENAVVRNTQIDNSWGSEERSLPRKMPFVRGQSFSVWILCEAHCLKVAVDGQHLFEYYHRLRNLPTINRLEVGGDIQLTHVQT
T6 sequence (Q05315 whole entry): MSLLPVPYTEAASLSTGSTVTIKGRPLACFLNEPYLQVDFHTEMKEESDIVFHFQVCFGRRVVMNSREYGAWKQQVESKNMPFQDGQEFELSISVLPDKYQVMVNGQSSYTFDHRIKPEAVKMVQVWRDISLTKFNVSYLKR
T5 sequence (O00214 whole entry): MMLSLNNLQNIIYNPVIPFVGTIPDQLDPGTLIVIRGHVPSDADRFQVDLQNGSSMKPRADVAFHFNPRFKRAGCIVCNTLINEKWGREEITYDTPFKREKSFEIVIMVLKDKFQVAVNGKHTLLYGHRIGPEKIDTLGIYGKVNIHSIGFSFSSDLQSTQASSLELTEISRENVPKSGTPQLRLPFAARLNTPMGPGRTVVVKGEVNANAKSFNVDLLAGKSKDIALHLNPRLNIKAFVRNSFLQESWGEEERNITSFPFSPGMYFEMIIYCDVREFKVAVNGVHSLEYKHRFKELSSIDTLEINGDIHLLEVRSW
T4 sequence (P47929 whole entry): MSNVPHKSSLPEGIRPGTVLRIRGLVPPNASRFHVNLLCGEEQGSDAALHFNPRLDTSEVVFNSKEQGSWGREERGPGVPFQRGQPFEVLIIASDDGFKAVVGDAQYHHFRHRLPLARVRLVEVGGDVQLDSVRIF
T1 sequence (P09382 whole entry): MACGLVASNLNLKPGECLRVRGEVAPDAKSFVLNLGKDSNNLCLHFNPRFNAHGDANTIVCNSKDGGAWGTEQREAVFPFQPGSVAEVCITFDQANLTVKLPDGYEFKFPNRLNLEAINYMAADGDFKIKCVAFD
T3 sequence (P56470 whole entry): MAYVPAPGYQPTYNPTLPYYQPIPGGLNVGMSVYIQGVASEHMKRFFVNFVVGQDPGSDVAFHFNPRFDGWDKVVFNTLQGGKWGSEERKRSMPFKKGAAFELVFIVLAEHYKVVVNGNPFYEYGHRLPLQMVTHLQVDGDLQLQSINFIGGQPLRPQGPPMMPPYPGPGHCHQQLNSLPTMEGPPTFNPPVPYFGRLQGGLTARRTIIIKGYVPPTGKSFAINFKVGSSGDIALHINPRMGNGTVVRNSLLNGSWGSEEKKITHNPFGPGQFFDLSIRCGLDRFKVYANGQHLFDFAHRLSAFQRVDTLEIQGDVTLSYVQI
T2 sequence (P05162 whole entry): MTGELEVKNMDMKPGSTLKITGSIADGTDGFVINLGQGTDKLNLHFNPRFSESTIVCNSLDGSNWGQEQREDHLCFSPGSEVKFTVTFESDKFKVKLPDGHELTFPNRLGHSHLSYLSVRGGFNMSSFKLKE

Binder	EC50 of prevention of gal-9-induced apoptotic death (annexin-V+ PI+) of activated primary CD3+ T cells; gal-9S 40 nM, 36 h, antibody 0.3 to 100 nM [1] [nM]	EC50 of reduction of gal-9-induced non-lethal PS translocation (annexin-V+ PI-) in activated primary CD3+ T cells; gal-9S 40 nM, 36 h, antibody 0.3 to 100 nM [1] [nM]	binding result [2]	binding result [3]	binding result [4]	binding result [5]	binding result [6]	binding result [7]	binding result [8]	binding result [9]	Kd [10] [nM]	koff [10] [s⁻¹]	kon [10] [M⁻¹ s⁻¹]	t1/2 [10]
Gal-Nab1 (antibody, V domains shown, heavy chain CDR1; heavy chain CDR2; heavy chain CDR3; mouse IgG1 heavy chain constant region (isotype IgG1, kappa as stated); light chain CDR1; light chain CDR2; light chain CDR3; mouse kappa light chain constant region (isotype IgG1, kappa as stated); Mouse IgG1, kappa; Raised against the C-terminal part of human gal-9 (residues 191 to 355 of gal-9L); also called anti-gal-9 mAb) VH: KVQLQQSGAELVKPGASVKLSCKASGYTFTDYTIHWVKQRSGQGLEWIGWFYPGSHSIKYNEQFKDRATLTADKSSSTVYMELSRLTSEDSAVYFCTRHGGYDGFDYWGQGTTLTVSS VL: DIVMSQSPSSLAVSVGEKITMSCKSSQSLFYSTNQKNYLAWYQQKPGQSPKLLIYWASTRESGVPDRFTGSGSGTDFTLTISSVKAEDLAVYYCQQYYYFPYTFGGGTKLEIK	10	50	no binding (tested: 1 nM)	no binding (tested: 1 nM)	no binding (tested: 1 nM)	no binding (tested: 1 nM)	no binding (tested: 1 nM)	no binding (tested: 1 nM)	binds	binds	0.01	2.3e-05	2.3e+06	8.37
Gal-Nab2 (antibody, V domains shown, heavy chain CDR1; that of Gal-Nab1 has 17); heavy chain CDR3; mouse IgG1 heavy chain constant region (isotype IgG1, kappa as stated); light chain CDR1; light chain CDR2; light chain CDR3; mouse kappa light chain constant region (isotype IgG1, kappa as stated); Mouse IgG1, kappa; Raised against the C-terminal part of human gal-9 (residues 191 to 355 of gal-9L); also called anti-gal-9 mAb) VH: KVQLQQSGAELVKPGASVKLSCKASGYTFTEYTIHWVKQRSGQGLEWIGWFYPGSGSMEYNEKFDKATLTADNSSSTVYMELSRLTSEDSAVYFCERHGGYDGFDYWGQGTTLTVSS VL: DIVMSQSPSSLAVSVGEKVTMSCKSSQSLLYSNNQKNYLAWYQQKPGQSPKLLIYWASTRGSGVPDRFTGSGSGTDFTLTISSVKAEDLAIYYCQQYYSYPFTFGGGTKLEIK	25	–	no binding (tested: 1 nM)	no binding (tested: 1 nM)	no binding (tested: 1 nM)	no binding (tested: 1 nM)	no binding (tested: 1 nM)	no binding (tested: 1 nM)	binds	–	–	–	–	–
